Laboratory results taken from publication PMC4102243, “Rett-causing mutations reveal two domains critical for MeCP2 function and for toxicity in MECP2 duplication syndrome mice”.

Target: MeCP2 C-terminal fragment WT (human, UniProt P51608 274-340)
Experiment: EMSA; 10 mM Tris-HCl pH 7.4, 50 mM KCl, 0.5 mM MgCl2, 0.1 mM EDTA, 5% glycerol, 0.1 mg/ml BSA, 66.7 nM probe, room temperature 30 min; 1% agarose gel, 1X TAE, 4 C
Settings: protein: recombinant; tags: N-terminal GST (pGEX-5x3); label: none (ethidium bromide post-stain); blunt

Chain of MeCP2 C-terminal fragment WT (P51608 274-340): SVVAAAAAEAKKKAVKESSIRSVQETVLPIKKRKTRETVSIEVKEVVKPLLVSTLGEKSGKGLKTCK

B1: 64-bp EMSA probe (dsDNA)
DNA 1: GGACTCCAGGTCCAGGACCGCGTTTTTCGCGCGCACGGCGCGGGAGGTCCAGCTGTCCACCTCC
DNA 2: GGAGGTGGACAGCTGGACCTCCCGCGCCGTGCGCGCGAAAAACGCGGTCCTGGACCTGGAGTCC
B1: binds.
